Our source for the percent of RAIDD DD:PIDD DD complex formation blocked values is paper PMC4977500.

This assay deals with RAIDD DD (UniProt P78560). The experiment in a line: native gel or EMSA; native-PAGE on a PhastSystem, 8-25% acrylamide gradient gels, Coomassie staining; complexes in 20 mM Tris pH 8.0, 50 mM NaCl; pre-incubated with or without peptide for 1 hour at room temperature; complex band without peptide taken as 100%. On the technique in general: A gel shift assay detects complexes by their altered migration in electrophoresis.
RAIDD DD, sequence (P78560 94-199): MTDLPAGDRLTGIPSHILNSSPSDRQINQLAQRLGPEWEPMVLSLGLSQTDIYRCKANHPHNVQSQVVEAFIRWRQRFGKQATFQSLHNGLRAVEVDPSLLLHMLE

Substance “TAT-Y814A (previously generated TAT-fused PIDD peptide with the mutation Y814A)” showed a percent of RAIDD DD:PIDD DD complex formation blocked at 30 μM peptide of 50%.
